Assay: melting temperature; melt of duplexes
Conditions: sodium 0.0675 M; strand 1 µM

Substance | Tm [°C]
CGACGTGCATTATGTGCTG+CAGCACATGAGGCACGTCG ((((((((.(.((((((((+)))))))).).)))))))) | 54
CGACGTGCATTATGTGCTG+CAGCACATGATGCACGTCG ((((((((((.((((((((+)))))))).)))))))))) | 58.1
CGACGTGCATTATGTGCTG+CAGCACATGCAGCACGTCG ((((((((...((((((((+))))))))...)))))))) | 48.7
CGACGTGCATTATGTGCTG+CAGCACATGGTGCACGTCG (((((((((..((((((((+))))))))..))))))))) | 51.8
CGACGTGCATTATGTGCTG+CAGCACATGTTGCACGTCG (((((((((..((((((((+))))))))..))))))))) | 52.2
CGACGTGCATTATGTGCTG+CAGCACATTAAGCACGTCG ((((((((.(.((((((((+)))))))).).)))))))) | 50.3
CGACGTGCATTATGTGCTG+CAGCACATTACGCACGTCG ((((((((.(.((((((((+)))))))).).)))))))) | 49.3
CGACGTGCATTATGTGCTG+CAGCACATTAGGCACGTCG ((((((((.(.((((((((+)))))))).).)))))))) | 51.9
CGACGTGCATTATGTGCTG+CAGCACATTCCGCACGTCG ((((((((...((((((((+))))))))...)))))))) | 47.5
CGACGTGCATTATGTGCTG+CAGCACATTGAGCACGTCG ((((((((...((((((((+))))))))...)))))))) | 49.5
CGACGTGCATTATGTGCTG+CAGCACATTTCGCACGTCG ((((((((...((((((((+))))))))...)))))))) | 48.3
CGACGTGCCAAATGTGCTG+CAGCACATAAAGCACGTCG ((((((((...((((((((+))))))))...)))))))) | 49.9
CGACGTGCCAAATGTGCTG+CAGCACATAACGCACGTCG ((((((((...((((((((+))))))))...)))))))) | 47.7
CGACGTGCCAAATGTGCTG+CAGCACATAATGCACGTCG ((((((((...((((((((+))))))))...)))))))) | 48.2
CGACGTGCCAAATGTGCTG+CAGCACATACGGCACGTCG (((((((((..((((((((+))))))))..))))))))) | 53.2
CGACGTGCCAAATGTGCTG+CAGCACATACTGCACGTCG ((((((((...((((((((+))))))))...)))))))) | 47.4
CGACGTGCCAAATGTGCTG+CAGCACATAGAGCACGTCG ((((((((...((((((((+))))))))...)))))))) | 49.1
CGACGTGCCAAATGTGCTG+CAGCACATCCGGCACGTCG (((((((((..((((((((+))))))))..))))))))) | 53.3

Substance | Tm [°C]
CGACGTGCCAAATGTGCTG+CAGCACATCGAGCACGTCG ((((((((...((((((((+))))))))...)))))))) | 49.6
CGACGTGCCAAATGTGCTG+CAGCACATCGCGCACGTCG ((((((((...((((((((+))))))))...)))))))) | 48.2
CGACGTGCCAAATGTGCTG+CAGCACATCTAGCACGTCG ((((((((.(.((((((((+)))))))).).)))))))) | 49.3
CGACGTGCCAAATGTGCTG+CAGCACATGAAGCACGTCG ((((((((...((((((((+))))))))...)))))))) | 51.2
CGACGTGCCAAATGTGCTG+CAGCACATGAGGCACGTCG (((((((((..((((((((+))))))))..))))))))) | 57.3
CGACGTGCCAAATGTGCTG+CAGCACATGATGCACGTCG ((((((((...((((((((+))))))))...)))))))) | 50.3
CGACGTGCCAAATGTGCTG+CAGCACATGCAGCACGTCG ((((((((...((((((((+))))))))...)))))))) | 52.7
CGACGTGCCAAATGTGCTG+CAGCACATGCTGCACGTCG ((((((((...((((((((+))))))))...)))))))) | 48.2
CGACGTGCCAAATGTGCTG+CAGCACATGGAGCACGTCG ((((((((...((((((((+))))))))...)))))))) | 52.4
CGACGTGCCAAATGTGCTG+CAGCACATGGCGCACGTCG ((((((((...((((((((+))))))))...)))))))) | 51.2
CGACGTGCCAAATGTGCTG+CAGCACATGGGGCACGTCG (((((((((..((((((((+))))))))..))))))))) | 56.6
CGACGTGCCAAATGTGCTG+CAGCACATGGTGCACGTCG ((((((((...((((((((+))))))))...)))))))) | 48.9
CGACGTGCCAAATGTGCTG+CAGCACATTACGCACGTCG ((((((((..(((((((((+)))))))))..)))))))) | 50.5
CGACGTGCCAAATGTGCTG+CAGCACATTAGGCACGTCG (((((((((.(((((((((+))))))))).))))))))) | 57.8
CGACGTGCCAAATGTGCTG+CAGCACATTGAGCACGTCG ((((((((..(((((((((+)))))))))..)))))))) | 53.9
CGACGTGCCAAATGTGCTG+CAGCACATTTAGCACGTCG ((((((((.((((((((((+)))))))))).)))))))) | 54.4
CGACGTGCCACATGTGCTG+CAGCACATAAAGCACGTCG ((((((((...((((((((+))))))))...)))))))) | 49.1
CGACGTGCCACATGTGCTG+CAGCACATAAGGCACGTCG (((((((((..((((((((+))))))))..))))))))) | 54
